# In patent publication US20230021388A1 (VELOSBIO, published 2023):
# Positions count from the first letter of the chain named.
# B1: Ab1 Fab variant H2 G66E (Fab, V domains shown)
# VH: QVQLQESGPGLVKPSQTLSLTCTVSGYAFTAYNIHWVRQAPGQGLEWMGSFDPYDEGSSYNQKFKDRLTISKDTSKNQVVLTMTNMDPVDTATYYCARGWYYFDYWGHGTLVTVSS
# VL: DIVMTQTPLSLPVTPGEPASISCRASKSISKYLAWYQQKPGQAPRLLIYSGSTLQSGIPPRFSGSGYGTDFTLTINNIESEDAAYYFCQQHDESPYTFGEGTKVEIK
# notes: Fab
# B2: Ab1 Fab variant L1 K29S (Fab, V domains shown)
# VH: B1 VH with E56G
# VL: B1 VL with K27S
# notes: Fab
# B3: Ab1 Fab variant H2 S68T (Fab, V domains shown)
# VH: B1 VH with E56G, S58T
# VL: B1 VL
# notes: Fab
# B4: Ab1 Fab variant L2 L70H (Fab, V domains shown)
# VH: B1 VH with E56G
# VL: B1 VL with L54H
# notes: Fab; also called SGSTHQS
# B5: Ab1 Fab variant L2 Q71T (Fab, V domains shown)
# VH: B1 VH with E56G
# VL: B1 VL with Q55T
# notes: Fab; also called SGSTLTS
# B6: Ab1 Fab variant H2 G66H (Fab, V domains shown)
# VH: B1 VH with E56H
# VL: B1 VL
# notes: Fab
# B7: Ab1 Fab variant H2 N71H (Fab, V domains shown)
# VH: B1 VH with E56G, N61H
# VL: B1 VL
# notes: Fab
# B8: Ab1 Fab variant H2 G67Y (Fab, V domains shown)
# VH: B1 VH with E56G, G57Y
# VL: B1 VL
# notes: Fab
# B9: Ab1 Fab variant H2 S69E (Fab, V domains shown)
# VH: B1 VH with E56G, S59E
# VL: B1 VL
# notes: Fab
# B10: Ab1 Fab variant H2 S68A (Fab, V domains shown)
# VH: B1 VH with E56G, S58A
# VL: B1 VL
# notes: Fab
# B11: Ab1 Fab variant L1 I31V (Fab, V domains shown)
# VH: B1 VH with E56G
# VL: B1 VL with I29V
# notes: Fab
# B12: Ab1 Fab variant L1 L41V (Fab, V domains shown)
# VH: B1 VH with E56G
# VL: B1 VL with L33V
# notes: Fab
# B13: Ab1 Fab variant L1 K29E (Fab, V domains shown)
# VH: B1 VH with E56G
# VL: B1 VL with K27E
# notes: Fab
# B14: Ab1 Fab variant L1 S30F (Fab, V domains shown)
# VH: B1 VH with E56G
# VL: B1 VL with S28F
# notes: Fab
# B15: Ab1 Fab variant H2 Y70I (Fab, V domains shown)
# VH: B1 VH with E56G, Y60I
# VL: B1 VL
# notes: Fab
# B16: Ab1 Fab variant H2 G67K (Fab, V domains shown)
# VH: B1 VH with E56G, G57K
# VL: B1 VL
# notes: Fab
# B17: Ab1 Fab variant H2 Y70V (Fab, V domains shown)
# VH: B1 VH with E56G, Y60V
# VL: B1 VL
# notes: Fab
# B18: Ab1 Fab variant L1 S30H (Fab, V domains shown)
# VH: B1 VH with E56G
# VL: B1 VL with S28H
# notes: Fab
# B19: Ab1 Fab variant L1 S32A (Fab, V domains shown)
# VH: B1 VH with E56G
# VL: B1 VL with S30A
# notes: Fab
# B20: Ab1 Fab variant L2 L70K (Fab, V domains shown)
# VH: B1 VH with E56G
# VL: B1 VL with L54K
# notes: Fab; also called SGSTKQS
# B21: Ab1 Fab variant H2 S69K (Fab, V domains shown)
# VH: B1 VH with E56G, S59K
# VL: B1 VL
# notes: Fab
# B22: Ab1 Fab variant H2 G67R (Fab, V domains shown)
# VH: B1 VH with E56G, G57R
# VL: B1 VL
# notes: Fab
# B23: Ab1 Fab variant L1 S30A (Fab, V domains shown)
# VH: B1 VH with E56G
# VL: B1 VL with S28A
# notes: Fab
# B24: Ab1 Fab variant H2 S69V (Fab, V domains shown)
# VH: B1 VH with E56G, S59V
# VL: B1 VL
# notes: Fab
# B25: Ab1 Fab variant L2 Q71V (Fab, V domains shown)
# VH: B1 VH with E56G
# VL: B1 VL with Q55V
# notes: Fab; also called SGSTLVS
# B26: Ab1 Fab variant L1 S32I (Fab, V domains shown)
# VH: B1 VH with E56G
# VL: B1 VL with S30I
# notes: Fab
# B27: Ab1 Fab variant H2 N71S (Fab, V domains shown)
# VH: B1 VH with E56G, N61S
# VL: B1 VL
# notes: Fab
# B28: Ab1 Fab variant L1 L41M (Fab, V domains shown)
# VH: B1 VH with E56G
# VL: B1 VL with L33M
# notes: Fab
# B29: Ab1 Fab variant L1 A25P (Fab, V domains shown)
# VH: B1 VH with E56G
# VL: B1 VL with A25P
# notes: Fab
# B30: Ab1 Fab variant H2 N71G (Fab, V domains shown)
# VH: B1 VH with E56G, N61G
# VL: B1 VL
# notes: Fab
# B31: Ab1 Fab variant H2 G67Q (Fab, V domains shown)
# VH: B1 VH with E56G, G57Q
# VL: B1 VL
# notes: Fab
# B32: Ab1 Fab variant H2 G66N (Fab, V domains shown)
# VH: B1 VH with E56N
# VL: B1 VL
# notes: Fab
# B33: Ab1 Fab variant L1 S30P (Fab, V domains shown)
# VH: B1 VH with E56G
# VL: B1 VL with S28P
# notes: Fab
# B34: Ab1 Fab variant H2 G67P (Fab, V domains shown)
# VH: B1 VH with E56G, G57P
# VL: B1 VL
# notes: Fab
# B35: Ab1 Fab variant H2 N71A (Fab, V domains shown)
# VH: B1 VH with E56G, N61A
# VL: B1 VL
# notes: Fab
# Target: T1, recombinant human ROR1 extracellular domain (human, UniProt Q01973 30-406)
# T1 construct: biotinylated for the filter lifts; also called huROR1-ECD; human ROR1-ECD
# T1 sequence (Q01973 30-406 limits assumed): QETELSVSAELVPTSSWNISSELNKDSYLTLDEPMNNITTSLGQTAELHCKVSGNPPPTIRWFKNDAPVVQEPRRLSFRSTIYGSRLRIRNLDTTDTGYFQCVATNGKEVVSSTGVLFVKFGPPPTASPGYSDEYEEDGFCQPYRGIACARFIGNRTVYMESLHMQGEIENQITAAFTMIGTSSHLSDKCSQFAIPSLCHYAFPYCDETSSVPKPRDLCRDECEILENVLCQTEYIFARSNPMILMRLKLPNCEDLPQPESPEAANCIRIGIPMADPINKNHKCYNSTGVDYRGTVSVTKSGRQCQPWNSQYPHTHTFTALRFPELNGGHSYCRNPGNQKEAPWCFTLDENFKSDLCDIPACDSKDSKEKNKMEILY
# Test: ELISA, soluble Fab on coated huROR1-ECD
# Protocol: The previously described filter lift assay provides a visual, qualitative assessment of antigen binding (Example 1). In order to assess the ROR1 binding activity of Ab1 Fab in a more quantitative fashion, an ELISA assay was developed. A 96-well Costar-3366 plate was coated with 50 μL/well of 1 μg/mL human ROR1-ECD (ACROBiosystems, cat. #RO1-H522y) in PBS overnight at 4° C. The plate was rinsed once with PBS-T and blocked with 100 μL/well of 5% M-P for 1 h at 25° C. Fab samples were serially diluted 3-fold using 5% M-P and 50 μL/well was incubated for 1 h at 25° C. The plate was washed three times with PBS-T and 50 μL/well anti-human kappa, and HRP conjugate (Southern Biotech, cat. #2060-05) diluted 10,000-fold in 5% M-P was added for 1 h at 25° C. In certain assays (extended wash format), the plate was placed in large volumes (up to 1 L) of PBS-T and incubated, with mixing, for 2-5 h prior to the addition of anti-human kappa, HRP conjugate. The plate was washed three times with PBS-T, and developed with 50 μL/well 1-Step Ultra TMB-ELISA (Thermo Scientific, cat. #34028). The reaction was terminated by the addition of 2 N H2504 and the A450 was determined using a Spectramax plate reader.
row,Kd,Binder
1,0.9 nM,B1
2,0.9 nM,B2
3,6.4 nM,B3
4,2.3 nM,B4
5,1.1 nM,B5
6,1.4 nM,B6
7,1.1 nM,B7
8,6.3 nM,B8
9,1.2 nM,B9
10,1.2 nM,B10
11,2.8 nM,B11
12,1.1 nM,B12
13,1.2 nM,B13
14,18 nM,B14
15,1.7 nM,B15
16,2.3 nM,B16
17,1.5 nM,B17
18,1.4 nM,B18

row,Kd,Binder
1,1.1 nM,B19
2,1.5 nM,B20
3,46 nM,B21
4,1.7 nM,B22
5,1.5 nM,B23
6,1 nM,B24
7,1.3 nM,B25
8,1.9 nM,B26
9,1.2 nM,B27
10,1.3 nM,B28
11,0.7 nM,B29
12,1.5 nM,B30
13,< 1 nM,B31
14,2.2 nM,B32
15,16 nM,B33
16,0.6 nM,B34
17,1.3 nM,B35
